Test [1] concerns the target T1, human LILRB1 recombinant protein (human, UniProt Q8NHL6 24-461).
T1 construct: The ELISA method says only 'LILRB1 recombinant proteins' coated on plates; also called leukocyte immunoglobulin-like receptor subfamily B member 1
In words: ELISA, B cell supernatant.

The next test deals with T2, recombinant LILRB1 (human, UniProt Q8NHL6 24-461).
T2 construct: LILRB1-Fc proteins were also made; also called LILRB1 recombinant proteins
In words: ELISA, coated recombinant LILRB1, antibody titration.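 Also: serially diluted anti-LILRB1 antibodies incubated 60 min at 37 °C on plates coated with 50 ng/well recombinant protein, TMB colorimetric development read as absorbance at 450 nm.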 A general note: ELISA stands for enzyme-linked immunosorbent assay.

As usually defined, the EC50 is the concentration at which the effect is half-maximal.

T1 sequence (Q8NHL6 24-461 limits assumed): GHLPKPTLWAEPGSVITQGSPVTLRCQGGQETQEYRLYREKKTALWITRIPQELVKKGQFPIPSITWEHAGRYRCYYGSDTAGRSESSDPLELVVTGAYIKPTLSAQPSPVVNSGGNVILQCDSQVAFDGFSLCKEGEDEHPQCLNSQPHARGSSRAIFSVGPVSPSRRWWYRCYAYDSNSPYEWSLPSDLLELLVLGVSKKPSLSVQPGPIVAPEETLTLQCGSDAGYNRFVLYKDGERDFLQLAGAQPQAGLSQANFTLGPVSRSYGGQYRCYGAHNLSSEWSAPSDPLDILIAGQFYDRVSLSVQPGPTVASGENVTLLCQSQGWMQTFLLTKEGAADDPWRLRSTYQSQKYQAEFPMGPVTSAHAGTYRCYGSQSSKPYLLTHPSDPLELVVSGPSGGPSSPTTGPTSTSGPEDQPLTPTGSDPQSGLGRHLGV
T2 sequence (Q8NHL6 24-461 limits assumed): as above
Procedure for recombinant LILRB1: ELISA. LILRB1 recombinant proteins (50 ng/well, 100 μL per well) were coated on Corning 96-well ELISA plates at 37° C. for 4 hrs. Plates were blocked for 2 hrs at 37° C. with 5% non-fat milk. After washing with PBST, 100 μL of serial diluted anti-LILRB1 antibodies were added and incubated for 60 min at 37° C. […] Plates were washed again with PBST for another 5 times, then the immunoreactions were developed with TMB substrates (Sigma, Cat #T0440) and stopped by the addition of 2 M H_2SO_4 before the plate was read at 450 nm.

B1: mAb of B cell clone 27 (supernatant) (antibody, V domains shown)
VH: EQSVKESGGGLVQPEGSLTLTCTVSGFSFSGSYWICWVRQAPGKGLEWIACIYGDSIATYYPNWAKGRFTISKTSSTTVTLQMASLTGADTATYFCARDRNGGSGAYGWDLWGPGTLVTISS
VL: ELDLTQTPASVSEPVGGTVTITCQASQSISSYLSWYQQTPGQPPKLLIYKASTLASGVPSRFKGSGSGTEFTLTISDLECADAATYYCQSYYYISATVDNTFGGGTEVEIK
notes: rabbit; also called B1-#27
Consider B1, for which the OD450 in test [1] amounted to 2.56 OD450.

B2: mAb of B cell clone 28 (supernatant) (antibody, V domains shown)
VH: EQSLEESGGGLVKPGASLTLTCKASGFSFSSDYDMCWVRQAPGKGLEWIGCIVTGFSGRIYYATWARGRFTFSRTSSTTLTLQMTSLTAADTATYFCARDSGNYNWDLWGPGTLVTISS
VL: ELDLTQTPTSVSAAVGGTVTIKCQASQSISDYLSWYQQKPGQPPKLLIYRASTLASGVPSRFKGSGSGTEFTLTISDLECADAATYYCQSNYYGSQGCTFGGGTEVEIK
notes: rabbit; also called B1-#28
With B2, the OD450 in test [1] came out at 2.27 OD450.

B3: mAb of B cell clone 72 (supernatant) (antibody, V domains shown)
VH: QSVKESGGGLVQPEGSLALTCKASGIDLSNYWYMCWVRQAPGKGLEWIGCVATDSSRTHYATWAKGRFTVSKTSSTTVTLQMTSLTAADTATYFCARGSGASTNGVWWVMGDGMDLWGPGTLVTISS
VL: ELVMTQTPSSVSAAVGGTVTIKCQASPSISTYLSWYQQKPGQPPKRLINRASTLASGVPPRFKGSGAGTQFTLTISDLECADAATYYCQNNYHSGSSNGGGVAFGGGTEVEIK
notes: rabbit; also called B1-#72-1
Regarding B3, the OD450 in test [1] amounted to 2.25 OD450.

B4: mAb of B cell clone 41 (supernatant) (antibody, V domains shown)
VH: QSVKESGGDLVKPGASLTLTCTASGFSFSSSYWICWVRQAPGKGLEWIACIYAGSSGSTYYASWAKGRFTISKTSSTTVTLQMTSLTAADTATYFCARSTSGSYGAGLGLWGPGTLVTISS
VL: ELDMTQTASPVSGAVGGTVTIKCQASQNIYNNIGWYQQKPGQPPNLLIYGPSYLASGVPSRFKGSRSGTEYTLTISDLECADAATYYCQSDDWMSISPDIVFGGGTEVEIK
notes: rabbit; also called B1-#41-1
B4: the OD450 in test [1] turned out to be 2.26 OD450.

B5: B1-#202-2 (antibody, V domains shown)
VH: SQSLEESGGGLVKPGASLTLTCKGSGFSFNGDYYMCWVRQTPGKGLEWIGCIYAAGDDTYYATWAKGRFTISKTSSTTVTLQMTSLTAADTATYFCARDQADSYAFGLWGPGTLVTISS
VL: ELVLTQTASPVSGAVGGTVTIKCQASQNIYSNLAWYQQKPGQPPKLLIYSASKLASGVPSRFKGSGSGTEYTLTISGVQCEDAATYYCQSYYYTASADTTFGGGTEVEIK
notes: recombinant rabbit IgG
Turning to B5, the EC50 with recombinant LILRB1 turned out to be 0.0594 µg/mL.

B6: mAb of B cell clone 56 (supernatant) (antibody, V domains shown)
VH: QSLEESGGDLVQPEGSLTLTCTASGFSFSINLYMCWVRQAPGKGLEWIACIYGNNNANTYYTTWAKGRFTISKTSPTTVTLQMTSLTGADTATYFCARDTAAYYAFSLWGPGTLVTISS
VL: ELVMTQTPSSSSAAVGGTVTIKCQASQSIGSRFAWYQQKPGQRPKLLIYEASKLPSGVPSRFKGSGSGTEFTLTISDLECADAAIYYCQCTYYESSSGGGFGGGTEVVVK
notes: rabbit; also called B1-#56
Take B6: the OD450 in test [1] stood at 2.09 OD450.

B7: B1-#79 (antibody, V domains shown)
VH: QSLEESGGGLVQPEGSLTLTCTVSGFSFSSSWYMCWVRQAPGKGLEWIACIYTLRSGAAHYANWAKGRFTISKASSTTVTLQMNSLTAADTATYFCARATYAYAGAGDLWGPGTLVTVSS
VL: ELVLTQTPSSVSAAVGGTVTINCQASEDIDRYLAWYQQKPGQRPKLLIVDASTLPSGVPSRFKGSGSGTEFTLTISDLECADGATYYCQSYDNSDNNGFGGGTEVVVK
notes: recombinant rabbit IgG
B7: the EC50 with recombinant LILRB1 is 0.0154 µg/mL.

B8: mAb of B cell clone 79 (supernatant) (antibody, V domains shown)
VH: QSLEESGGGLVQPEGSLTLTCTVSGFSFSSSWYMCWVRQAPGKGLEWIACIYTLRSGAAHYANWAKGRFTISKASSTTVTLQMNSLTAADTATYFCARATYAYAGAGDLWGPGTLVTVSS
VL: ELVLTQTPSSVSAAVGGTVTINCQASEDIDRYLAWYQQKPGQRPKLLIVDASTLPSGVPSRFKGSGSGTEFTLTISDLECADGATYYCQSYDNSDNNGFGGGTEVVVK
notes: rabbit; also called B1-#79
In the case of B8, the OD450 in test [1] turned out to be 2.32 OD450.

B9: mAb of B cell clone 25 (supernatant) (antibody, V domains shown)
VH: EQSVKESGGGLVQPEGSLTLTCKVSGIDFNYYNYYYMCWVRQAPGKGLEWIGCMSTASANIYLASWAKGRFTISEASSTTVTLQMTSLTAADTATYFCAKSHGGDGGYGVVLWGPGTLVTISS
VL: ELDLTQTPFSVSAAVGGTVTIKCQASETISNRLAWYQQKPGQPPKLLIYSASTLESGVPSRFKGSGSGTEFTLTISDLECADAATYYCQSIRSSSGIVHPNTFGGGTEVEIK
notes: rabbit; also called B1-#25
B9: the OD450 in test [1] came out at 2.3 OD450.

B10: mAb of B cell clone 58 (supernatant) (antibody, V domains shown)
VH: EQSLEESGGDLVKPGASLTLTCTASAFSFSSSSWICWVRQAPGKGLEWIACIYGGSVGTTYYASWAKGRFTISKPSSTTVTLQMTSLAAADTATYFCATNTDSSRSYYNLWGPGTLVTISS
VL: ELVLTQTPSSVEVAVGGAVTIKCQASHIITNYLAWYQQRPGQPPKLLIYDASKLASGVPSRFKGSGSGTEFTLTISDLECADAATYYCQNYLYFSSGDWNVFGGGTEVVVK
notes: rabbit; also called B1-#58-1
As to B10, the OD450 in test [1] came to 2.26 OD450.

B11: mAb of B cell clone 83 (supernatant) (antibody, V domains shown)
VH: EQSLKESGGDLVKPGASLTLTCTASAFSFSSSSWICWVRQAPGKGLEWIACIYGGSVATTYYATWAKGRFTISKPSSTTVTLQMTSLPAADTATYFCATNTDSSRSYYNLWGPGTLVTVSS
VL: ELDLTQTPSSVEVAVGGAVTIKCQASHIITNYLAWYQQRPGQPPKLLIYDASKLASGVPSRFKGSGSGTEFTLTISDLECADAATYYCQNYLYFSSGDWNVFGGGTEVVVK
notes: rabbit; also called B1-#83
Regarding B11, the OD450 in test [1] was found to be 2.32 OD450.

B12: mAb of B cell clone 38 (supernatant) (antibody, V domains shown)
VH: EQSVEESEGGLVQPEGSLTLTCTASGFSFSNDYWICWVRQAPGKGLEWIGCGHIGSFRTTYYASWAKGRFSISKTSSTTVTLQMTSLTGADTATYFCARSPYDDGYGGFTFNLWGPGTLVTISS
VL: ELDMTQTPSSVEAAVGGTVTVKCQVSQSIGNAIAWYQQKPGQPPKLLIYKASTLASGVPSRFKGSGSGTEFTLTISDLECADAATYYCQNYYYSNTNSFGGGTEVVVK
notes: rabbit; also called B1-#38
Regarding B12, the OD450 in test [1] turned out to be 2.32 OD450.

B13: mAb of B cell clone 22 (supernatant) (antibody, V domains shown)
VH: EQSLEESGGGLVKPGASLTLTCKASGFDFSSNDYMCWVRQAPGKGLEWIGCIYGGDGHTYYATWAKGRFTISKASSTTVTLQMTSLTAADTASYFCARGYSYGDTGYADAILTLDLWGPGTLVTVSS
VL: ELDLTQTPASVEAAVGGTVTIKCQASQTIGSYLSWYQQKPGQRPKLLIYEASKLASGVPSWFKGSGSGTEFTLTISDLECADAATYYCQSNYYRAGGNYGGAFGGGTEVEIK
notes: rabbit; also called B1-#22
For B13, the OD450 in test [1] amounted to 1.84 OD450.

B14: mAb of B cell clone 74 (supernatant) (antibody, V domains shown)
VH: QSLEESGGGLVKPGASLTLTCTASGFSLNRYYMCWVRQAPGKGLEWIGCIYSGSGSTYYASWAKGRFTISKTSSTTVTLQMTSLPAADTATYFCGRLDYRVIYAFNLWGPGTLVTISS
VL: ELVLTQTPASVSAAVGGTVTINCQASQSIGSGNLAWYQQKPGQPPKLLIYLASTLASGVPPRFKGSGSGTEFTLTISDLECDDAATYYCQYTYYGTTYDNAFGGGTELEIK
notes: rabbit; also called B1-#74
As to B14, the OD450 in test [1] was 2.4 OD450.

B15: mAb of B cell clone 76 (supernatant) (antibody, V domains shown)
VH: EQSVEESGGGLVQPEGSLTLTCTASGFSFSGSCDMSWVRQAPGKGLEWIACIVLSNGNTYYAGWAQGRFTISKISSTTVTLEMTSLTAADTATYFCARERYPGAFSSGLDLWGQGTLVTVSS
VL: ELDLTQTPSPVSAAVGGTVTINCQASQIVANGRLAWYQQKPGQPPKLLIYATSTLASGVPSRFKGSGSGTQFTLTINGVQCDDAATYYCQGAYSSGDVRTFGGGTEVVVK
notes: rabbit; also called B1-#76
On to B15, for which, in test [1], the OD450 worked out at 2.14 OD450.

The values are drawn from patent publication US12723078 (University of Texas, dated 2026).
